Assay results reported in PMC4110014.

Columns and labels:
[1] = target: Caldendrin-C-terminus (Caldendrin-Ct, residues 137–298) (UniProt O88751); assay: SPR; Biacore X-100, CM5 chip, ligand amine-coupled, 25°C, flow 10 µl/min; running buffer with 1 mM Mg2+/1 mM EGTA (column 'EGTA'); molar binding activity deduced from the dissociation phase
[2] = target: Caldendrin-C-terminus (Caldendrin-Ct, residues 137–298) (UniProt O88751); assay: SPR; Biacore X-100, CM5 chip, ligand amine-coupled, 25°C, flow 10 µl/min; running buffer with 1 mM Mg2+/500 µM Ca2+ (column 'Ca2+'); molar binding activity deduced from the dissociation phase
Caldendrin full length [3] = target: Caldendrin full length (UniProt O88751); assay: cross-linking + SEC; protein incubated with 0.01% glutaraldehyde, then Superdex 75 gel filtration
Caldendrin full length [4] = target: Caldendrin full length (UniProt O88751); assay: SEC; Superdex 75, ÄKTA FPLC, 50 mM Tris, 100 mM KCl, 500 µM Mg2+ with 200 µM EGTA or 100 µM Ca2+; monomer to dimer
Caldendrin full length [5] = target: Caldendrin full length (UniProt O88751); assay: dynamic light scattering; Zetasizer Nano S, 25°C, 50 mM Tris, 100 mM KCl, Mg2+ with EGTA or with 50 µM Ca2+; monomer to dimer
Caldendrin full length [6] = target: Caldendrin full length (UniProt O88751); assay: SPR; Biacore X-100, CM5 chip, ligand amine-coupled, 25°C, flow 10 µl/min; running buffer with 1 mM Mg2+/1 mM EGTA (column 'EGTA'); molar binding activity deduced from the dissociation phase
Caldendrin full length [7] = target: Caldendrin full length (UniProt O88751); assay: SPR; Biacore X-100, CM5 chip, ligand amine-coupled, 25°C, flow 10 µl/min; running buffer with 1 mM Mg2+/500 µM Ca2+ (column 'Ca2+'); molar binding activity deduced from the dissociation phase

Caldendrin-C-terminus (Caldendrin-Ct, residues 137–298), O88751 137-298 (domain or fragment; other documents disagree on this pair), sequence (O88751 137-298): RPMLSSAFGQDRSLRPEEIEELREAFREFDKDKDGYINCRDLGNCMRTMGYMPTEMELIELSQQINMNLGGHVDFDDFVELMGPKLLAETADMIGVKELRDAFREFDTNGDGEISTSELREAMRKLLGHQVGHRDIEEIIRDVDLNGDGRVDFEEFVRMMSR

| molar binding activity [1] | molar binding activity [2] | stoichiometry N (Caldendrin full length [3]) | stoichiometry N (Caldendrin full length [4]) | stoichiometry N (Caldendrin full length [5]) | molar binding activity (Caldendrin full length [6]) | molar binding activity (Caldendrin full length [7]) | Substance |
| --- | --- | --- | --- | --- | --- | --- | --- |
| 0.0541 | 0.0373 |  |  |  |  |  | Caldendrin-C-terminus (Caldendrin-Ct, residues 137–298), O88751 137-298 (domain or fragment; other documents disagree on this pair) |
|  |  | 2 | 2 | 2 | 0.0215 | 0.0757 | Caldendrin full length (from UniProt O88751 1-298) (natural protein) |
